Test results taken from US20130023033A1, “PHARMACOLOGICALLY INDUCED TRANSGENE ABLATION SYSTEM” (The Trustees of the University of Pennsylvania, priority 2010, published 2013).
Entries after “also recorded” stand apart in the source; their conditions may differ.

Assays:
[1] = target: ZFHD-FKBP fusion with 3 copies of FKBP (3xFKBP) (UniProt P62942); experiment: cell-based or functional assay
[2] = test system: GFP-Luciferase driven by a promoter induced by the dimerized TF; experiment: In vivo model for a dimerizer-inducible system (Xenogen imaging of luciferase after rapamycin); set-up: species or system mouse; details: rapamycin 2 mg/kg IP
Source text: Four groups of three mice received IV injection of AAV vectors encoding bicistronic reporter genes (GFP-Luciferase) at doses of 3×10^10, 1×10^11 and 3×10^11 particles of virus, respectively: Group 1 (G 1, G2, and G3) received AAV vectors expressing GFP Luciferase under the control of ubiquitous constitutive CMV promoter (see FIG. 16A for a diagram of the DNA construct). Group 2 (G4, G5, and G6) received co-injection of the following 2 AAV vectors: (1) AAV vector expressing a dimerizable transcription factor domain unit (FRB fused with p65 activation domain and DNA binding domain ZFHD fused with 3 copies of FKBP) driven by the CMV promoter (the DNA construct shown in FIG. 9B; and (2) AAV vector expressing GFP-Luciferase driven by a promoter induced by the dimerized TF (see FIG. 19C for a diagram of the DNA constructs). Group 3 (G7, G8, and G9) received AAV vector expressing GFP-Luciferase under the control of a liver constitutive promoter, TBG (see FIG. 16C for a diagram of the DNA construct). Group 4 (G10, G11, G12) received co-injection of the following 2 AAV vectors: (1) AAV vector expressing a dimerizable transcription factor domain unit (FRB fused with p65 activation domain and DNA binding domain ZFHD fused with 3 copies of FKBP) driven by the TBG promoter; and (2) AAV vector expressing GFP-Luciferase driven by a promoter induced by the dimerized TF (see FIG. 16D for a diagram of the DNA constructs).
About 2 weeks post virus administration, the mice were given IP injection of the dimerizer, rapamycin, at the dose of 2 mg/kg. Starting the next day the luciferase expression was monitored by Xenogen imaging analysis. Approximately 24 hours post rapamycin injection, the mice were IP injected with luciferin, the substrate for luciferase, then anesthetized for imaging.

[3] = test system: pCMV.Luciferase reporter gene in HEK293 cells; experiment: Ablation of luciferase reporter by FokI ablators cotransfected with pCMV.Luciferase; format: cell-based, human; details: for expression of Luc reporter gene with increasing concentrations of ablator expression plasmid: 50 ng pCMV.Luciferase cotransfected with 6.25, 12.5, 25, 50 and 100 ng expression plasmid
Method: Open reading frames encoding for various endonucleases were codon optimized and de novo synthesized by GeneArt. Ablator expression and target plasmids were produced using standard molecular biological cloning techniques. Transfections were performed in HEK293 cells using Lipofectamine™ 2000 transfection reagent (Life Technologies). All transfections were performed using optimal transfection conditions as defined in transfection reagent protocol. Briefly, 200-250 ng plasmid DNA (excluding transfection control plasmid) was complexed with lipofectamine and added to cells in 96 well plates. DNA quantities were consistent across all conditions by supplementation with an unrelated plasmid containing the same promoter as test plasmids. Transfection complexes were incubated with cells for 4-6 hours as transfection reagent protocol before the addition of FBS supplemented media. Transfected cells were incubated at 37° C. for 24-72 hours. Following incubation, cells were assayed for reporter gene expression using Promega Dual Luciferase detection kit according to the manufacturer's instructions on a BioTek Clarity platereader and renilla luciferase was used to control for transfection efficiency. All samples were performed in quadruplicate and standard errors of the mean were calculated.

UniProt P62942, sequence (P62942 other isoform, or with tags, fused parts or gaps): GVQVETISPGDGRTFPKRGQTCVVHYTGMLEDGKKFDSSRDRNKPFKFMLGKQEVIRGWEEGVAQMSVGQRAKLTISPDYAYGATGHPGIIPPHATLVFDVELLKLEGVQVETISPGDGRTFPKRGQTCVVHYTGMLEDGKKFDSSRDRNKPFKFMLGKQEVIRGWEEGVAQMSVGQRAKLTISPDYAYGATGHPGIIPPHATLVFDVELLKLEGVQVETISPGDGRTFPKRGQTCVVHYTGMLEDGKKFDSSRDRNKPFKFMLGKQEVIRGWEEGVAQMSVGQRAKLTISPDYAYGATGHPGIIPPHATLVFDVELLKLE

With “FRB-TA fusion (FRB fragment of FRAP/mTOR, amino acids 2021-2113 with Thr2098Leu, fused to a 190 amino acid portion of human NF-KB p65)” the luciferase expression in mice (Xenogen imaging) after rapamycin 2 mg/kg IP against pre-induction; Group 2, transcription factor domains driven by the CMV promoter [1] was 2 logs and the luciferase expression in mice (Xenogen imaging) after rapamycin 2 mg/kg IP against pre-induction; Group 4, transcription factor domains driven by the TBG promoter [1] was over 100 fold.

For `CO[C@H]1C[C@@H]2CC[C@@H](C)[C@@](O)(O2)C(=O)C(=O)N2CCCC[C@H]2C(=O)O[C@H]([C@H](C)C[C@@H]2CC[C@@H](O)[C@H](OC)C2)CC(=O)[C@H](C)/C=C(\C)[C@@H](O)[C@@H](OC)C(=O)[C@H](C)C[C@H](C)/C=C/C=C/C=C/1C` [rapamycin], the “level of luciferase expression compared to level of pre-induction” value ([2]; Group 2 mice (TF unit driven by CMV promoter + inducible GFP-Luciferase vector), 3×10^11 particles, about 24 h post rapamycin) was “more than 2 logs”, the “luciferase expression induced compared to pre-inducement” value ([2]; Group 4 mice (TF unit driven by TBG promoter + inducible GFP-Luciferase vector), 3×10^11 particles, about 24 h post rapamycin) was “more than 100 fold” and the “peak level of luciferase expression over baseline” value ([2]; dimerizer-inducible system) was “more than 2 logs”.

“ZFHD-FokI: FokI catalytic domain fused to a zinc finger homeodomain DNA binding domain (SEQ ID NO: 21), from expression plasmid” was tested, and the “expression of Luc reporter gene with increasing concentrations of ablator expression plasmid” value [3] was “dose dependent ablation; also recorded: effectively ablated expression of luciferase reporter in a dose dependent manner”.

B1: NLS-HTH-FokI: HTH-FokI with heterologous NLS added at the N-terminus of the coding sequence (protein)
chain: MPKKKRKVGRPPRLTKAEWEQAGRLLAQGIPRKQVALIYDVALSTLYKKHPAKRAHIENDDRINGTKQLVKSELEEKKSELRHKLKYVPHEYIELIEIARNPTQDRILEMKVMEFFMKVYGYRGEHLGGSRKPDGAIYTVGSPIDYGVIVDTKAYSGGYNLPIGQADEMQRYVEENQTRNKHINPNEWWKVYPSSVTEFKFLFVSGHFKGNYKAQLTRLNHITNCNGAVLSVEELLIGGEMIKAGTLTLEEVRRKFNNGEINF
modifications: SV40 NLS-Gin HTH-linker-FokI, coding sequence only; modified enzyme from SV40, Gin and FokI
B1 was tested, and the “activity (ablation of luciferase reporter) after adding heterologous NLS at the N-terminus” value ([3]; compared with HTH-FokI without NLS, separate experiment (FIG. 27B)) was “further improved”.

B2: HTH-FokI: HTH from Gin, linker and FokI catalytic domain (SEQ ID NO: 6), from expression plasmid (protein)
chain: MGRPPRLTKAEWEQAGRLLAQGIPRKQVALIYDVALSTLYKKHPAKRAHIENDDRINGTKQLVKSELEEKKSELRHKLKYVPHEYIELIEIARNPTQDRILEMKVMEFFMKVYGYRGEHLGGSRKPDGAIYTVGSPIDYGVIVDTKAYSGGYNLPIGQADEMQRYVEENQTRNKHINPNEWWKVYPSSVTEFKFLFVSGHFKGNYKAQLTRLNHITNCNGAVLSVEELLIGGEMIKAGTLTLEEVRRKFNNGEINF
In the case of B2, the “expression of Luc reporter gene with increasing concentrations of ablator expression plasmid” value [3] is reported as “effectively ablated expression of luciferase reporter in a dose dependent manner”.

B3: untethered FokI: FokI catalytic domain alone, 198 amino acids (SEQ ID NO: 14), from expression plasmid (protein)
chain: MKQLVKSELEEKKSELRHKLKYVPHEYIELIEIARNPTQDRILEMKVMEFFMKVYGYRGEHLGGSRKPDGAIYTVGSPIDYGVIVDTKAYSGGYNLPIGQADEMQRYVEENQTRNKHINPNEWWKVYPSSVTEFKFLFVSGHFKGNYKAQLTRLNHITNCNGAVLSVEELLIGGEMIKAGTLTLEEVRRKFNNGEINF
In the case of B3, the “expression of Luc reporter gene with increasing concentrations of ablator expression plasmid” value [3] is reported as “no effect”.

B4: wild-type FokI: full-length FokI enzyme (SEQ ID NO: 12) expressed from cotransfected plasmid pCMV.FokI (protein)
chain: MFLSMVSKIRTFGWVQNPGKFENLKRVVQVFDRNSKVHNEVKNIKIPTLVKESKIQKELVAIMNQHDLIYTYKELVGTGTSIRSEAPCDAIIQATIADQGNKKGYIDNWSSDGFLRWAHALGFIEYINKSDSFVITDVGLAYSKSADGSAIEKEILIEAISSYPPAIRILTLLEDGQHLTKFDLGKNLGFSGESGFTSLPEGILLDTLANAMPKDKGEIRNNWEGSSDKYARMIGGWLDKLGLVKQGKKEFIIPTLGKPDNKEFISHAFKITGEGLKVLRRAKGSTKFTRVPKRVYWEMLATNLTDKEYVRTRRALILEILIKAGSLKIEQIQDNLKKLGFDEVIETIENDIKGLINTGIFIEIKGRFYQLKDHILQFVIPNRGVGTKQLVKSELEEKKSELRHKLKYVPHEYIELIEIARNPTQDRILEMKVMEFFMKVYGYRGEHLGGSRKPDGAIYTVGSPIDYGVIVDTKAYSGGYNLPIGQADEMQRYVEENQTRNKHINPNEWWKVYPSSVTEFKFLFVSGHFKGNYKAQLTRLNHITNCNGAVLSVEELLIGGEMIKAGTLTLEEVRRKFNNGEINF
B4 was tested, and the “expression of the luciferase reporter gene” value ([3]; 50 ng pCMV.Luciferase, 200 ng pCMV.FokI or transfected FokI protein (FIG. 25A)) was “effective ablated expression”.
